Source: paper PMC3818340

What was measured:
[1] = substrate: CC#CC(=O)C(=O)O; experiment: purified protein; type: biochemical, Pseudomonas pavonaceae; conditions: 20 mM sodium phosphate buffer, pH 9.0, 24 °C
[2] = substrate: CC#CC(=O)C(=O)O; experiment: purified protein; type: biochemical, coryneform bacterium; conditions: 20 mM sodium phosphate buffer, pH 9.0, 24 °C

B1: Pp MSAD (Pseudomonas pavonaceae) (protein)
chain: PLLKFDIFYGRTDAQIKSLLDAAHGAMVDAFGVPANDRYQTVSQHRPGEMVLEDTGLGYGRSSAVVLLTVISRPRSEEQKVCFYKLLTGALERDCGISPDDVIVALVENSDADWSFGRGRAEFLTGDLV
Question: B1 was tested. Which Km [1] did it give?
Answer: Its Km is 3 ± 1.2 mM.

Question: What about the kcat [1] of the same protein?
Answer: Its kcat is 3.4 ± 0.8 s⁻¹.

Question: What about the kcat/Km [1] of the same protein?
Answer: The kcat/Km was 1130 M⁻¹ s⁻¹.

B2: FG41 MSAD (coryneform bacterium) (protein)
chain: PLIRIDLTSDRSREQRRAIADAVHDALVEVLAIPARDRFQILTAHDPSDIIAEDAGLGFQRSPSVVIIHVFTQAGRTIETKQRVFAAITESLAPIGVAGSDVFIAITENAPHDWSFGFGSAQYVTGELAIPATGAA
Question: B2 was tested. Which Km [2] did it give?
Answer: The Km was 7.3 ± 0.8 mM.

Question: What about the kcat [2] of the same protein?
Answer: Its kcat is 0.17 ± 0.01 s⁻¹.

Question: What about the kcat/Km [2] of the same protein?
Answer: The kcat/Km was 20 M⁻¹ s⁻¹.

B3: FG41 MSAD (coryneform bacterium; Q73R) (protein)
chain: PLIRIDLTSDRSREQRRAIADAVHDALVEVLAIPARDRFQILTAHDPSDIIAEDAGLGFQRSPSVVIIHVFTRAGRTIETKQRVFAAITESLAPIGVAGSDVFIAITENAPHDWSFGFGSAQYVTGELAIPATGAA
Question: How did the Km [2] turn out when B3 was run?
Answer: The Km was 6.6 ± 1.5 mM.

Question: What about the kcat [2] of the same protein?
Answer: Its kcat is 1.2 ± 0.2 s⁻¹.

Question: And the kcat/Km [2]?
Answer: The kcat/Km was 180 M⁻¹ s⁻¹.

B4: FG41 MSAD (coryneform bacterium; Y123F) (protein)
chain: PLIRIDLTSDRSREQRRAIADAVHDALVEVLAIPARDRFQILTAHDPSDIIAEDAGLGFQRSPSVVIIHVFTQAGRTIETKQRVFAAITESLAPIGVAGSDVFIAITENAPHDWSFGFGSAQFVTGELAIPATGAA
Question: Which results are given for B4?
Answer: Km [2]: 21 ± 5 mM; kcat [2]: 0.7 ± 0.1 s⁻¹; kcat/Km [2]: 30 M⁻¹ s⁻¹
